Measured values as given in article PMC9239997, “Structural basis for mitoguardin-2 mediated lipid transport at ER-mitochondrial membrane contact sites” (Nature Communications, 2022).
[ ]: non-standard residue; d: D form. pS = N[C@@H](COP(=O)(O)O)C(=O)O

B3: phosphorylated FFAT motif peptide of mouse MIGA2 (residues 289-298) (peptide)
peptide: Ac-SED[pS]FF[pS]ATE-NH2
SMILES: CC(=O)N[C@@H](CO)C(=O)N[C@@H](CCC(=O)O)C(=O)N[C@@H](CC(=O)O)C(=O)N[C@@H](COP(=O)(O)O)C(=O)N[C@@H](Cc1ccccc1)C(=O)N[C@@H](Cc1ccccc1)C(=O)N[C@@H](COP(=O)(O)O)C(=O)N[C@@H](C)C(=O)N[C@H](C(=O)N[C@@H](CCC(=O)O)C(N)=O)[C@@H](C)O
notes: also called mMIGA2^pFFAT; source: synthetic peptide, purified by HPLC
B4: mouse MIGA2 residues 275-570, S292E/S295D (domain or fragment, mouse (Mus musculus), UniProt Q8BK03 275-570, looked up)
chain: GSLRLRADDEDSLTSEDEFFDATEIFESLQIGEYPLPLSRPAAAYEEALQLVKEGRVPCRTLRTELLGCYSDQDFLAKLHCVRQAFEGLLEERSNQIFFGEVGRQMVTGLMTKAEKSPKGFLESYEEMLSYALRPETWATTRLELEGRGVACMSFFDIVLDFILMDAFEDLENPPSSVLAVLRNRWLSDSFKETALATACWSVLKAKRRLLMVPDGFISHFYSVSEHVSPVLAFGFLGPKPQLSEVCAFFKHQIVQYLRDMFDLDNVRYTSVPALAEDILQLSRRRSEILLGYLGA
B5: MSP domain of mouse VAPB (residues 1-125) K87L/K118L (domain or fragment, UniProt Q9QY76 1-125, looked up)
chain: MAKVEQVLSLEPQHELKFRGPFTDVVTTNLKLGNPTDRNVCFKVKTTVPRRYCVRPNSGVIDAGASLNVSVMLQPFDYDPNEKSKHLFMVQSMFAPPDTSDMEAVWKEAKPEDLMDSLLRCVFEL
notes: VAPB, Mus musculus, MSP domain, residues 1-125, with K87L and K118L; also called mVAPB K87L/K118L
B6: MSP domain of mouse VAPB (residues 1-125) (domain or fragment, mouse (Mus musculus), UniProt Q9QY76 1-125, looked up)
chain: MAKVEQVLSLEPQHELKFRGPFTDVVTTNLKLGNPTDRNVCFKVKTTVPRRYCVRPNSGVIDAGASLNVSVMLQPFDYDPNEKSKHKFMVQSMFAPPDTSDMEAVWKEAKPEDLMDSKLRCVFEL
notes: vesicle-associated membrane protein-associated protein B/C (VAPB), mouse, MSP domain, residues 1-125; In the liposome clustering (DLS) and tethered lipid transfer assays a His-tagged form (His-mVAPB) was used; also called mVAPB; wild-type mVAPB
B7: MSP domain of mouse VAPB (residues 1-125) K43L/K45L (domain or fragment, UniProt Q9QY76 1-125, looked up)
chain: MAKVEQVLSLEPQHELKFRGPFTDVVTTNLKLGNPTDRNVCFLVLTTVPRRYCVRPNSGVIDAGASLNVSVMLQPFDYDPNEKSKHKFMVQSMFAPPDTSDMEAVWKEAKPEDLMDSKLRCVFEL
notes: VAPB, Mus musculus, MSP domain, residues 1-125, with K43L and K45L; also called mVAPB K43L/K45L

How the values were obtained:
[1] = molecular target: T1, zMiga2 (Danio rerio, UniProt Q5BLE2); test: FRET lipid transfer between liposomes; type: biochemical; settings: labelled compound; 100 nM protein, pH 7.0, room temperature; transport, not chemical turnover
T1 construct: gene miga2; LD targeting domain, residues 310-568; E. coli BL21(DE3); His6 tag cleaved by TEV
T1 sequence (Q5BLE2 310-568): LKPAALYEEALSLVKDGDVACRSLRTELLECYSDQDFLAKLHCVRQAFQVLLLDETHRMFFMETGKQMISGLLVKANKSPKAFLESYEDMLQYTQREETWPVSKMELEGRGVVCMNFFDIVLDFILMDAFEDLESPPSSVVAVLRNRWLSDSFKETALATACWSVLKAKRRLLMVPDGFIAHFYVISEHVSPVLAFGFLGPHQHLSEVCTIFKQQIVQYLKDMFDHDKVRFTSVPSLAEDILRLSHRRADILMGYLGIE

[2] = molecular target: the molecule itself; test: SEC; Superdex 200 increase 10/300 GL, 25 mM Tris-HCl pH 7.5, 150 mM NaCl, 5 mM DTT; proteins injected at 2–4 mg/ml; elution compared with molecular mass standards
[3] = molecular target: T2, mouse MIGA2 residues 275-570 S292E (mouse, UniProt Q8BK03 275-570, S292E); test: ITC; mVAPB (wild type or mutant) in the syringe, mMIGA2^275-570 or mMIGA2^pFFAT in the cell; Microcal ITC200, 25 °C, 25 mM Tris-HCl pH 7.5, 150 mM NaCl, 4 mM β-mercaptoethanol; 20 injections of 2 μl; 1:1 binding model; settings: both partners purified
T2 construct: source: E. coli BL21 (DE3), purified as the wild type (Ni2+-chelated HiTrap, tag cleaved by TEV, size exclusion chromatography)
T2 sequence (looked up): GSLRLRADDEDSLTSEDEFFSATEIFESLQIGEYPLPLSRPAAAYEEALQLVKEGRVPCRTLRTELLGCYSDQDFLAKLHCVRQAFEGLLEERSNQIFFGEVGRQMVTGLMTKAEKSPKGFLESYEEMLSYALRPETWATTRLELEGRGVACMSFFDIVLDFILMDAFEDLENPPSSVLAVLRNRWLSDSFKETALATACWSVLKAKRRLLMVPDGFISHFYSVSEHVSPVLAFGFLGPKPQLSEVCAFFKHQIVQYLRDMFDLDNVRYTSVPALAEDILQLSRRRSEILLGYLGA

[4] = molecular target: T3, mouse MIGA2 residues 275-570 S295D (mouse, UniProt Q8BK03 275-570, S295D); test: as above; settings: both partners purified
T3 construct: source: E. coli BL21 (DE3), purified as the wild type (Ni2+-chelated HiTrap, tag cleaved by TEV, size exclusion chromatography)
T3 sequence (looked up): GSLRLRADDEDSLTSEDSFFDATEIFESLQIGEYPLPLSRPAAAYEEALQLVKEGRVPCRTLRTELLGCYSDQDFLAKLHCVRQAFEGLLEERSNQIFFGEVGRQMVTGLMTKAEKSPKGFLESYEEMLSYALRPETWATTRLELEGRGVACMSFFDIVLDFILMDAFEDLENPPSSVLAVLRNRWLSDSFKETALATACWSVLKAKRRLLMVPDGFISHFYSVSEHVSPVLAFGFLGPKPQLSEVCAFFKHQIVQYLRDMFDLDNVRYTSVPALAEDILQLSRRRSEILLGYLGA

[5] = molecular target: B3; test: as above; settings: both partners purified
[6] = molecular target: T4, mouse MIGA2 residues 275-570 S292E/S295D (mouse, UniProt Q8BK03 275-570, S292E | S295D); test: as above; settings: both partners purified
T4 construct: source: E. coli BL21 (DE3), purified as the wild type (Ni2+-chelated HiTrap, tag cleaved by TEV, size exclusion chromatography)
T4 sequence (looked up): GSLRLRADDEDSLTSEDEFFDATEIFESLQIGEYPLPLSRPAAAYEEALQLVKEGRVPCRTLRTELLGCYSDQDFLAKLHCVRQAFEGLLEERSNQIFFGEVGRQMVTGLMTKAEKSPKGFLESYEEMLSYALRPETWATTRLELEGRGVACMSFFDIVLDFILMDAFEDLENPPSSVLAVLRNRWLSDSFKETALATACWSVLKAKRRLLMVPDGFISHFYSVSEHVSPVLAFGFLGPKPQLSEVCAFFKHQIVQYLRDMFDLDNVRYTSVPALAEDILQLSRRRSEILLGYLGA

[7] = molecular target: B7; test: as above; settings: both partners purified
[8] = molecular target: B5; test: as above; settings: both partners purified
[9] = molecular target: B6; test: cell-based or functional assay
[10] = molecular target: T5, mouse MIGA2 residues 275-570, S295D (mouse (Mus musculus), UniProt Q8BK03 275-570, S295D); test: ITC; Microcal ITC200, 25 °C, buffer C (25 mM Tris-HCl pH 7.5, 150 mM NaCl, 4 mM β-mercaptoethanol); 20 injections of 2 μl; 1:1 binding model; settings: both partners purified
T5 construct: also called S295D phosphorylation mimic mutant; source: E. coli BL21 (DE3), purified (Ni2+-chelated HiTrap, TEV cleavage, SEC)
T5 sequence (looked up): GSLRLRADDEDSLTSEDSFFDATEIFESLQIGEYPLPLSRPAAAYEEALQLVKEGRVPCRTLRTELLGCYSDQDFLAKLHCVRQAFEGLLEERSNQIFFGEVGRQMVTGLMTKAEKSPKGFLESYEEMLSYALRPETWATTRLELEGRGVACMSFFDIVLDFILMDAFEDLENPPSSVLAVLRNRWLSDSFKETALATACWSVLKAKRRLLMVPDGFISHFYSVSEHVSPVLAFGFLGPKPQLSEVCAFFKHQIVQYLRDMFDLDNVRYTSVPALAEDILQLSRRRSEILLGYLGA

[11] = molecular target: T6, mouse MIGA2 residues 275-570, S292E (mouse (Mus musculus), UniProt Q8BK03 275-570, S292E); test: as above; settings: both partners purified
T6 construct: also called S292E phosphorylation mimic mutant; source: E. coli BL21 (DE3), purified (Ni2+-chelated HiTrap, TEV cleavage, SEC)
T6 sequence (looked up): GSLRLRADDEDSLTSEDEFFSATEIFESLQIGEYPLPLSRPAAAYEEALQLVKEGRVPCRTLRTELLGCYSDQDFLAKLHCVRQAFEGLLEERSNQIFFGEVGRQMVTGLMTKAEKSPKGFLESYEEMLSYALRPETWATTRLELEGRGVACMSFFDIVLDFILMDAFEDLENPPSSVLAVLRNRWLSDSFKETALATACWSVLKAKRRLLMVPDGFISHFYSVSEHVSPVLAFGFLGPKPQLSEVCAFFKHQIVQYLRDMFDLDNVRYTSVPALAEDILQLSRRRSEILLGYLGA

[12] = molecular target: B4; test: as above; settings: both partners purified

## CCCCCCCCCCCCCCCC(=O)OC[C@H](COP(=O)(O)O)OC(=O)CCCCCCCCCCCNc1ccc([N+](=O)[O-])c2nonc12 [NBD-PA, 1-palmitoyl-2-{12-[(7-nitro-2-1,3-benzoxadiazol-4-yl)amino]dodecanoyl}-sn-glycero-3-phosphate]
[1]
  FRET lipid transfer between liposomes: zMiga2 transfers not only PS, but also PE, PC, and PA

## CCCCCCCCCCCCCCCC(=O)OC[C@H](COP(=O)(O)OC[C@H](N)C(=O)O)OC(=O)CCCCCCCCCCCNc1ccc([N+](=O)[O-])c2nonc12 [NBD-PS, 1-palmitoyl-2-{12-[(7-nitro-2-1,3-benzoxadiazol-4-yl)amino]dodecanoyl}-sn-glycero-3-phosphoserine]
[1]
  FRET lipid transfer between liposomes: zMiga2 transferred PS more rapidly than other phospholipids

B1: mouse MIGA2 residues 161-570 (domain or fragment, UniProt Q8BK03 161-570, looked up)
chain: GMEESVPTTDGSAESLYVQGMELFEEALQKWEQALSVGQRGDGGSTPTPGDSLQNPDTASEALSEPESQRREFAEKLESLLHRAYHLQEEFGSTFPSDSMLLDLERTLMLPLTEGSLRLRADDEDSLTSEDSFFSATEIFESLQIGEYPLPLSRPAAAYEEALQLVKEGRVPCRTLRTELLGCYSDQDFLAKLHCVRQAFEGLLEERSNQIFFGEVGRQMVTGLMTKAEKSPKGFLESYEEMLSYALRPETWATTRLELEGRGVACMSFFDIVLDFILMDAFEDLENPPSSVLAVLRNRWLSDSFKETALATACWSVLKAKRRLLMVPDGFISHFYSVSEHVSPVLAFGFLGPKPQLSEVCAFFKHQIVQYLRDMFDLDNVRYTSVPALAEDILQLSRRRSEILLGYLGA
notes: Oligomer of unstated size by SEC; source: E. coli BL21 (DE3), purified (Ni2+-chelated HiTrap, tag cleaved by TEV, size exclusion chromatography)
[2]
  binding result: binds

B2: MSP domain of mouse VAPB (residues 1-125) (domain or fragment, UniProt Q9QY76 1-125, looked up)
chain: MAKVEQVLSLEPQHELKFRGPFTDVVTTNLKLGNPTDRNVCFKVKTTVPRRYCVRPNSGVIDAGASLNVSVMLQPFDYDPNEKSKHKFMVQSMFAPPDTSDMEAVWKEAKPEDLMDSKLRCVFEL
notes: vesicle-associated membrane protein-associated protein B/C (VAPB), Mus musculus, MSP domain, residues 1-125; Cloned into pGEX-6P-1; the pull-down used a GST-fused form, which is not this molecule; also called mVAPB; mVAPB WT
[3]
  stoichiometry N: 0.633 ± 0.071
[4]
  stoichiometry N: 0.501 ± 0.013
[5]
  stoichiometry N: 0.755 ± 0.07
[6]
  stoichiometry N: 0.658 ± 0.009

## B3
[7]
  Kd: 8.6 ± 1.4 µM
[8]
  Kd: 5 ± 0.4 µM

## B4
[9]
  liposome particle size by DLS: donor liposomes pre-anchored with His-mVAPB mixed with acceptor liposomes pre-anchored with His-mMIGA2^275-570 (S292E/S295D), compared with wild-type His-mMIGA2^275-570: ~5 fold

## B5
[5]
  stoichiometry N: 0.698 ± 0.071

## B6
[10]
  Kd: 8.1 ± 1.5 µM
[11]
  Kd: 26.4 ± 6.8 µM
[12]
  Kd: 2.5 ± 0.3 µM

## B7
[5]
  stoichiometry N: 1.04 ± 0.027

B8: mouse MIGA2 middle domain, residues 161-300 (domain or fragment, UniProt Q8BK03 161-300, looked up)
chain: GMEESVPTTDGSAESLYVQGMELFEEALQKWEQALSVGQRGDGGSTPTPGDSLQNPDTASEALSEPESQRREFAEKLESLLHRAYHLQEEFGSTFPSDSMLLDLERTLMLPLTEGSLRLRADDEDSLTSEDSFFSATEIF
notes: Oligomer of unstated size by SEC; also called central MIGA2 domain; source: E. coli BL21 (DE3), purified (Ni2+-chelated HiTrap, tag cleaved by TEV, size exclusion chromatography)
[2]
  binding result: binds
